According to patent US20160068605A1 (Janssen / Centocor, published 2016):

How the values were obtained:
[1] = target: T1, cyno CD123 ECD displayed on pDisplay-transfected cells (cynomolgus monkey); test: MSD-CAT on pDisplay cells
T1 construct: ECD anchored on the surface of stably transfected HEK293 cells; also called cynoCD123 SP1 cells; cynoCD123 cells
T1 chain: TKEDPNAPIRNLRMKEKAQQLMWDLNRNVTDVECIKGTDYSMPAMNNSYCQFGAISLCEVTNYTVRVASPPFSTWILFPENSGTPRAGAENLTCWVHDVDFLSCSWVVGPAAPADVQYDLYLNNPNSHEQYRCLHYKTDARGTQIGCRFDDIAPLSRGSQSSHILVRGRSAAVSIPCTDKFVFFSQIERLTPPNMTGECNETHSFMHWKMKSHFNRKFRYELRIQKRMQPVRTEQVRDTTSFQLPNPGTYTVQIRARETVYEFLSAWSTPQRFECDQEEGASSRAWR
Method: After equilibration the plate was centrifuged for 5 min ˜1000 rpm and free anti-CD3 detected on the supernatant. […] The assay buffer was removed without washing and 50 μL/well of 0.7 μg/mL of biotinylated antigen in assay buffer were added to MSD plates and incubated overnight (˜16 hr at 4° C.). After overnight incubation, the plates were blocked by adding 150 μL/well of assay buffer without removing coating antigen, incubated for ˜1 hr at ambient temperature and washed 5 times with wash buffer (assay buffer without BSA). 50 μL/well of the supernantants from samples plate were transferred to antigen-coated plates, incubated for 60 min, and then washed three times with wash Buffer. After this 50 μL per well of ruthenium labeled detection antibody(anti-human H+L) were added and incubated for 1 hr. After 1 hr the plates were washed and 150 μL of MSD Read Buffer (prepared by diluting 1:4 of stock into d. H₂O) were added per well. The plates were read immediately on the MSD Sector Imager 6000 Reader for luminescence levels. ECL signal detected by MSD was expressed in term of % free antibody in the mixture and the data was analyzed to determine affinity using a user defined equation (derived from the law of mass action) introduced in Prism software.

[2] = target: T2, Recombinant human CD123 SP1 ECD-His tag protein (human, UniProt P26951 20-305); test: SPR Biacore 3000, captured mAb
T2 construct: bought from R&D Systems (#301-R3/CF); biotinylated for some assays; also called rhCD123 SP1; huCD123 ECD SP1
T2 sequence: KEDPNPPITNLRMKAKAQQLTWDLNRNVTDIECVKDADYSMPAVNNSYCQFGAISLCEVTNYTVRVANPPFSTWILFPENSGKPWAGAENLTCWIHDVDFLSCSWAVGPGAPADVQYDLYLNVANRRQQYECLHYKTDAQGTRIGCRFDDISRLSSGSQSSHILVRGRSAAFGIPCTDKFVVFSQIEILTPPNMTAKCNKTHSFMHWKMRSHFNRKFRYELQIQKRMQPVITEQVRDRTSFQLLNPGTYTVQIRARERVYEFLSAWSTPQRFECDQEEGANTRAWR
Method: (§1) Kinetic studies were performed at 25° C. using a Biacore 3000 (BIAcore, Inc., now part of GE Healthcare). […] Sheep anti-Human Fd specific antibody (The binding site Prod # PC075) was covalently attached to two flow cells (normally 3 and 4) of the carboxymethyl dextran coated gold surfaces (CM-5 Chip, Biacore). The carboxymethyl groups of dextran were activated with N-Ethyl-N′-(3-Dimethylaminopropyl)carbodiimide (EDC) and N-hydroxysuccinimide (NHS). The antibodies were coupled at pH 4.5 in 10 mM sodium acetate. Any remaining reactive sites on the surface were blocked by reaction with ethanolamine. […] Association data was collected for 2 min followed by 10 min of dissociation. The surface was regenerated with 30 μL of 100 mM H3PO4 100 μL/min. All samples were prepared in D-PBS containing 3 mM EDTA and 0.005% surfactant P20. Data reported is the difference in SPR signal between the flow cell containing the captured antibody or Fab and a reference cell without captured antibody or Fab. Additional instrumental contributions to the signal were removed by subtraction of the data from the blank injection from the reference-subtracted signal. Data were performed in triplicate and analyzed by fitting association and dissociation phases at all concentrations (global fit) with a 1:1 binding model using the BIAevaluation software (BIAcore, Inc.). […] Data presented is an average.

[3] = target: T3, Recombinant human CD123 SP2 ECD protein (human, UniProt P26951 101-303); test: SPR Biacore 3000, captured mAb
T3 construct: also called rhCD123 SP2; CD123 ECD SP2
T3 sequence: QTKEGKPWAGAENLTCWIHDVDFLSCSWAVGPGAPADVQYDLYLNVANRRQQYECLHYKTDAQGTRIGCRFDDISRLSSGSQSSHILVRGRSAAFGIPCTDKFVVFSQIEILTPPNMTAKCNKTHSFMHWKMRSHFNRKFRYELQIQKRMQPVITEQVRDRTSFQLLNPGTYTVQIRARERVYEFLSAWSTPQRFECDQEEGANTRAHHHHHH
Method: as §1

[4] = target: T2, Recombinant human CD123 SP1 ECD-His tag …; test: SPR Biacore T200, captured antibody
Method: Kinetic studies were performed at 25° C. using a Biacore T200 (Biacore, Inc., now part of GE Healthcare). […] The carboxymethyl groups of dextran were activated with N-Ethyl-N′-(3-Dimethylaminopropyl)carbodiimide (EDC) and N-hydroxysuccinimide (NHS). The anti-Fc antibody was coupled at pH 4.5 in 10 mM sodium acetate. Any remaining reactive sites on the surface were blocked by reaction with ethanolamine. […] 40-70 RU of antibody were captured. […] Association data was collected for 2 min followed by 10 min of dissociation. The surface was regenerated with 30 μL of 100 mM H3PO4 100 μL/min, followed by 50 mM NaOH. The samples for kinetic analysis were prepared in PBS-based buffer (D-PBS containing 3 mM EDTA and 0.005% surfactant P20). Data reported is the difference in SPR signal between the flow cell containing the captured antibody and a reference cell without captured antibody. Additional instrumental contributions to the signal were removed by subtraction of the data from the blank injection from the reference-subtracted signal. Data were analyzed by fitting association and dissociation phases at all concentrations (global fit) with a 1:1 binding model using the BIAevaluation software (BIAcore, Inc.).

[5] = target: T4, human CD123 SP1 ECD displayed on pDisplay-transfected cells (human, UniProt P26951 20-305); test: MSD-CAT, hCD123 cells, assay-1; apparent KD (bivalent)
T4 construct: ECD anchored on the surface of stably transfected HEK293 cells by the PDGFR transmembrane domain; also called hCD123 SP1 cells; hCD123 cells
T4 sequence: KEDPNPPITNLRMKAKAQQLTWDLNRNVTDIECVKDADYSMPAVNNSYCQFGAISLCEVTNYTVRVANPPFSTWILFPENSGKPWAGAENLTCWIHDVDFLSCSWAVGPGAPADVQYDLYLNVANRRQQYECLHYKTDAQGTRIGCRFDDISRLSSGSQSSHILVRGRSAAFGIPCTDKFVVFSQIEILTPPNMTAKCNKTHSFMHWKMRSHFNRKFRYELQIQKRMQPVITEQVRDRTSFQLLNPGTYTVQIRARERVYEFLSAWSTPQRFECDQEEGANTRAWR

[6] = target: T1, cyno CD123 ECD displayed on …; test: MSD-CAT, cynoCD123 cells, assay-1; apparent KD (bivalent)

B1: I3RB18 (antibody, IgG1, V domains shown)
VH: EVQLVQSGAEVKKPGESLKISCKGSGYSFTSYWISWVRQMPGKGLEWMGIIDPSDSDTRYSPSFQGQVTISADKSISTAYLQWSSLKASDTAMYYCARGDGSTDLDYWGQGTLVTVSS
VL: EIVLTQSPGTLSLSPGERATLSCRASQSVSSSYLAWYQQKPGQAPRLLIYGASSRATGIPDRFSGSGSGTDFTLTISRLEPEDFAVYYCQQDYGFPWTFGQGTKVEIK
notes: IgG1; also called 13RB18; mAb I3RB18
For B1, the “fold weaker than to human CD123 SP1” value [1] was over 10 fold, the Kd [2] was 1200 pM and the koff [2] was 0.000808 s⁻¹. For the same binder, the kon [2] was 688000 M⁻¹ s⁻¹, the Kd [3] was 300 pM and the Kd [4] was 935 pM. For the same binder, the koff [4] was 0.00072 s⁻¹, the kon [4] was 773000 M⁻¹ s⁻¹ and the Kd [5] was 55 pM. For the same binder, the Kd [6] was 832 pM.
